# Measured values taken from paper PMC10920880, “RNA compaction and iterative scanning for small RNA targets by the Hfq chaperone”.
# B1: (AAC)4-N0-S6 mRNA on DNA tether (mixed)
# RNA: GGACUCUAUCGAGUCCAACAACAACAACGACCUCGCGCCCAGGACGACACACUUUGGACAGGACACACAGGACACAGG
# DNA: CCTGTGTCCTGTGTGTCCTGTCCAAAGTGTGTCGTCC
# B2: (AAC)4-S6-N35-S6 tandem mRNA on DNA tether (mixed)
# RNA: GGACUCUAUCGAGUCCAACAACAACAACAGACCUCUCUACCAUCACCUAAACUUUACUCUACCAUCACCAGACCUCGCGCCCAGGACGACACACUUUGGACAGGACACACAGGACACAGG
# DNA: CCTGTGTCCTGTGTGTCCTGTCCAAAGTGTGTCGTCC
# B3: (AAC)4-N15-S6 mRNA on DNA tether (mixed)
# RNA: GGACUCUAUCGAGUCCAACAACAACAACUCUACCAUCACCUAAGACCUCGCGCCCAGGACGACACACUUUGGACAGGACACACAGGACACAGG
# DNA: CCTGTGTCCTGTGTGTCCTGTCCAAAGTGTGTCGTCC
# B4: (AAC)4-S6-N15-S4 tandem mRNA on DNA tether (mixed)
# RNA: GGACUCUAUCGAGUCCAACAACAACAACCGACCUCUCUACCAUCACCACUCCUCGCGCCCAGGACGACACACUUUGGACAGGACACACAGGACACAGG
# DNA: CCTGTGTCCTGTGTGTCCTGTCCAAAGTGTGTCGTCC
# B5: (AAC)4-N35-S6 mRNA on DNA tether (mixed)
# RNA: GGACUCUAUCGAGUCCAACAACAACAACUCUACCAUCACCUAAACUUUACUCUACCAUCACCAGACCUCGCGCCCAGGACGACACACUUUGGACAGGACACACAGGACACAGG
# DNA: CCTGTGTCCTGTGTGTCCTGTCCAAAGTGTGTCGTCC
# B6: (AAC)4-S4-N13-S6 tandem mRNA on DNA tether (mixed)
# RNA: GGACUCUAUCGAGUCCAACAACAACAACACUCCUCUCUACCAUCACCCGACCUCGCGCCCAGGACGACACACUUUGGACAGGACACACAGGACACAGG
# DNA: CCTGTGTCCTGTGTGTCCTGTCCAAAGTGTGTCGTCC
# B7: (AAC)6-N35-S6 mRNA on DNA tether (mixed)
# RNA: GGACUCUAUCGAGUCCAACAACAACAACAACAACCCCUGCAUCACCUAAACUUUACUCUACCAUCACCAGACCUCGCGCCCAGGACGACACACUUUGGACAGGACACACAGGACACAGG
# DNA: CCTGTGTCCTGTGTGTCCTGTCCAAAGTGTGTCGTCC
# B8: (AAC)4-S6-N13-S6 tandem mRNA on DNA tether (mixed)
# RNA: GGACUCUAUCGAGUCCAACAACAACAACAGACCUCUCUACCAUCACCAGACCUCGCGCCCAGGACGACACACUUUGGACAGGACACACAGGACACAGG
# DNA: CCTGTGTCCTGTGTGTCCTGTCCAAAGTGTGTCGTCC
# B9: (AAC)4-S6-N13-S6_SL tandem mRNA on DNA tether (mixed)
# RNA: GGACUCUAUCGAGUCCAACAACAACAACAGACCUCUCUACCAUCACCGCAGCAUACUGCUGCAGACCUCGCGCCCAGGACGACACACUUUGGACAGGACACACAGGACACAGG
# DNA: CCTGTGTCCTGTGTGTCCTGTCCAAAGTGTGTCGTCC
# Tests used:
# [1] = target: T1, Hfq (Escherichia coli K12, UniProt P0A6X3 1-102); assay: smFRET; 5 nM sRNA (N13)-Hfq; rates 0.05 s-1 (49%) and 0.01 s-1; lifetime >~112 s; smFRET: 10 mM Tris-HCl pH 7.5, 50 mM NaCl, 50 mM KCl, 4 mM Trolox, 0.01% Nikkol, 0.8% glucose, RNasin, oxygen scavenger; EMSA: 1x TNK, 5% glycerol, 15 min RT, native 8% PAGE 1x TBE 4 C; conditions: protein: recombinant; tags: none (untagged); chain copies: 6; label: tether 5' biotin, 3' Cy5; RNA 3' extension paired to DNA tether; 5' hairpin
# [2] = target: T1, Hfq; assay: smFRET; sRNA (N13)-Hfq; 23% dynamic; smFRET: 10 mM Tris-HCl pH 7.5, 50 mM NaCl, 50 mM KCl, 4 mM Trolox, 0.01% Nikkol, 0.8% glucose, RNasin, oxygen scavenger; EMSA: 1x TNK, 5% glycerol, 15 min RT, native 8% PAGE 1x TBE 4 C; conditions: protein: recombinant; tags: none (untagged); chain copies: 6; label: tether 5' biotin, 3' Cy5; RNA 3' extension paired to DNA tether; 5' hairpin
# [3] = target: T1, Hfq; assay: smFRET; sRNA (N13)-Hfq; smFRET: 10 mM Tris-HCl pH 7.5, 50 mM NaCl, 50 mM KCl, 4 mM Trolox, 0.01% Nikkol, 0.8% glucose, RNasin, oxygen scavenger; EMSA: 1x TNK, 5% glycerol, 15 min RT, native 8% PAGE 1x TBE 4 C; conditions: protein: recombinant; tags: none (untagged); chain copies: 6; label: tether 5' biotin, 3' Cy5; RNA 3' extension paired to DNA tether; 5' hairpin
# [4] = target: T1, Hfq; assay: smFRET; sRNA (N13)-Hfq; prefers S6 site; smFRET: 10 mM Tris-HCl pH 7.5, 50 mM NaCl, 50 mM KCl, 4 mM Trolox, 0.01% Nikkol, 0.8% glucose, RNasin, oxygen scavenger; EMSA: 1x TNK, 5% glycerol, 15 min RT, native 8% PAGE 1x TBE 4 C; conditions: protein: recombinant; tags: none (untagged); chain copies: 6; label: tether 5' biotin, 3' Cy5; RNA 3' extension paired to DNA tether; 5' hairpin
# [5] = target: T1, Hfq; assay: smFRET; sRNA (N13)-Hfq; lifetime similar to (AAC)4; smFRET: 10 mM Tris-HCl pH 7.5, 50 mM NaCl, 50 mM KCl, 4 mM Trolox, 0.01% Nikkol, 0.8% glucose, RNasin, oxygen scavenger; EMSA: 1x TNK, 5% glycerol, 15 min RT, native 8% PAGE 1x TBE 4 C; conditions: protein: recombinant; tags: none (untagged); chain copies: 6; label: tether 5' biotin, 3' Cy5; RNA 3' extension paired to DNA tether; 5' hairpin
# [6] = target: T1, Hfq; assay: smFRET; sRNA (N13)-Hfq; 39% dynamic; smFRET: 10 mM Tris-HCl pH 7.5, 50 mM NaCl, 50 mM KCl, 4 mM Trolox, 0.01% Nikkol, 0.8% glucose, RNasin, oxygen scavenger; EMSA: 1x TNK, 5% glycerol, 15 min RT, native 8% PAGE 1x TBE 4 C; conditions: protein: recombinant; tags: none (untagged); chain copies: 6; label: tether 5' biotin, 3' Cy5; RNA 3' extension paired to DNA tether; 5' hairpin
# [7] = target: T1, Hfq; assay: smFRET; sRNA (N13)-Hfq; 57% dynamic; smFRET: 10 mM Tris-HCl pH 7.5, 50 mM NaCl, 50 mM KCl, 4 mM Trolox, 0.01% Nikkol, 0.8% glucose, RNasin, oxygen scavenger; EMSA: 1x TNK, 5% glycerol, 15 min RT, native 8% PAGE 1x TBE 4 C; conditions: protein: recombinant; tags: none (untagged); chain copies: 6; label: tether 5' biotin, 3' Cy5; RNA 3' extension paired to DNA tether; 5' hairpin; spacer stem-loop
binder,measurement,setting,value
B1,binding result,[1],binds
B2,binding result,[2],binds
B3,binding result,[3],binds
B4,binding result,[4],binds
B5,binding result,[3],binds
B6,binding result,[4],binds
B7,binding result,[5],binds
B8,binding result,[6],binds
B9,binding result,[7],binds
